This note sets out measurements from the nanobody polyreactivity screen of Harvey et al. (2022).

This series can be described thus: yeast display, Sf9 membrane polyspecificity reagent, FACS + sequencing; frameworks hold sequencing errors. The method in brief:
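Sorting gates, low and high (top ~1%), were placed on anti-HA fluorescence to track expression and on streptavidin fluorescence to track reagent binding. A clone's polyreactivity label is taken from the gate it came out of. The reagent was 10% biotinylated, detergent-solubilized Sf9 membrane, applied for 1 hour at 4 °C to galactose-induced yeast display cells.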
Take “QVQLVESGGGLVQAGGSLRLSCAASGGTFGYYAMGWYRQAPGKDRELVAGINYSGGRTYYADSVKGRFTISRDNAKNTVYLQMNSLKPEDTAVYYCAAQAYVGYRGYDYWGQGTQVTVSS”: the “polyreactivity (PSR sort gate)” value is given as “high polyreactivity”.

“QVQLVESGGGLVQAGGSLRLSCAASGSIFVGYDMGWYRQAPGKEREWVAAITSSGGGSTYYADSVKGRFTISRDNAKNTVYLQMNSLKPEDTAVYYCAARTSLWWFLKYDYWGQGTQVTVSS”: the “polyreactivity (PSR sort gate)” value is on record as “low polyreactivity”.

On to “QVQLVESGGGLVQAGGSLRLSCAASGSIFSGNAMGGYRQAPGKERELVAAISRTGTRTFYADSEKGRFTISRDNAKNTVYLQMNSLKPEDTAVYYCAADNPDGDGYDYWGQGTQVTVSS”, for which the “polyreactivity (PSR sort gate)” value was “high polyreactivity”.

For “QGQLVQSGVGLVQAGGILRLSCASSGITFASYAMGWYRPAPGKEMELVATITTGGTNTYYADSVKARFTISRDNAKNTVYLQMNSLKPEDTAVYSSAADSTQYVLSGNYDYWGQGTQVTVSS”, the “polyreactivity (PSR sort gate)” value was “low polyreactivity”.

Consider “QVQLVESGGGLVQAGGSLRLSCAASGRIFLWYAMGWYRKAPGKERELVADISSNGGSTRYADSVKGRFAISRDNEKNTVYLQMNILKPEDTAVYYCNADVHWNRYRYGGNGYGYWGQGTQVTVSS”, for which the “polyreactivity (PSR sort gate)” value is reported as “low polyreactivity”.

Consider “QVQLVESGGGLVQAGGSLRLSCAASGYTFRHYAMGWYRQEPGKERELVAAITFNGGTTYYADSVKGRFTISRDNAKNTVYLQMNSLKPEDTAVYYCNALPYSRGRWRPLSAVDYWGQGTQVTVSS”, for which the “polyreactivity (PSR sort gate)” value is on record as “high polyreactivity”.

In the case of “QVQLVESGGGLVQAGGSLSLSCADSGSTIYRYAMGWNRQAPGKEREFVATISRSGGGTYYADSEKGRLTISRDNAMNTVYLQMISLKPEDTSVYYCAARDVVQAGYYVKKYDYWGQGTQVTVSS”, the “polyreactivity (PSR sort gate)” value was “high polyreactivity”.

As to “QVQLVESGGGLVQAGGSLRLSCAASGSIFKYYTIGWYRQAPGKERELVAAISWSGGRTYYADSVKGRFTISRDIAKNTVYLQMNSLKPEDTAVYYCAKYVSYSRTLYDYWGQGTKVTVSS”, the “polyreactivity (PSR sort gate)” value is recorded as “high polyreactivity”.

Turning to “QVQLVESGGGLVHAGGSLRLSCAASGRTFCGYAMGRYRHAPGKERELVATNSYSSGSTYYADSVKGRFTISRDNAMNTVYLQMNSLTPEDTAVYYCAARIRYFYRYDYWGQGTQVTVSS”, the “polyreactivity (PSR sort gate)” value is reported as “high polyreactivity”.

“QVQLVESGGGLVQAGGSLRLSCAASGRTFSTYAMGWYRQAPGKERELVAAITRRGGSTYYADSVKGRFTISRDNAKNTVYLQMNSLKPEDTAVYYCARENPGDSYYDYWGQGTQVTVSS”: the “polyreactivity (PSR sort gate)” value is on record as “low polyreactivity”.

Turning to “QVQLVDSGGGLVQAGGSLSLSCAASGSTFTWYAMGWYIQAPGKERELVAASRWSGGNTYYADSVKGRFTISRDNAKHTVYLQMNSLKPEDPAVYYCAARLYTAADHYNDWGQGTQVTGSS”, the “polyreactivity (PSR sort gate)” value is on record as “high polyreactivity”.

Turning to “QVQLVESGGGLVQAGGILRLSCAASGSIFLGNAMGWYRQAPGKERELVAVINSGGDTNYADSVKGRFTISRDNAKNTVYLQMNSLKPEDTAVYYCARRKGKWDSYGGWGQGTQETVSS”, the “polyreactivity (PSR sort gate)” value was “low polyreactivity”.

Turning to “QVQLEESGGGLVQAGGSLRLSCAASGRTFVFNAMGWYRQAPGTERELVASINSRVGSTYYADSVKGRFTISRDNAKNTVYLQMNSLKPEDTAVYYCAARSYSSYYYWGQGTQVTVSS”, the “polyreactivity (PSR sort gate)” value is recorded as “high polyreactivity”.

For “QVQLVESGGGLVQAGGSLRLSSAASGRTFQRNVMGWYRQAPGKDRELVAAISSSGGGTYYADSVKGRFTISRDNAKNTVYLQMNSLKPEDTAVYYCAARYRSYGGYGYYYWGLGTQVTVSS”, the “polyreactivity (PSR sort gate)” value is on record as “high polyreactivity”.

For “QVQLVESGGGLVQAGGSLRLSSAASGSTFAEYAMGWYRQAPGKERELVAAIRWSGGSTSYADSVKGRFTISRDNAKNTVYLQMNSLKPEDTAVYYCAAERFWYDGEVKLYVLSYYWGQGTQVTVSS”, the “polyreactivity (PSR sort gate)” value is listed as “low polyreactivity”.

Turning to “QVQLVESGGGLVQAGGSLRLSCAASGSTSAYYVMGWYRQAPGKERELVAAIDFSGDSTYYADSVKGRFTISRDNAKNTVYLQMNSLKPEDTAVYYCAAELFNYSSLVSYEYWGQGTQVTVSS”, the “polyreactivity (PSR sort gate)” value was “high polyreactivity”.

With “QVQLVESGGGLVQAGGSLRLSCAASGRTFRSYAMGRYRQAPGKVRELVAAISYGGGSTYYADSVKGRFTISRDNAKNTVYLQMNSLKPEDTAVYYCAAAGNKRGGYDYWGQGTQVTVSS”, the “polyreactivity (PSR sort gate)” value is on record as “high polyreactivity”.

Take “QVQLVESGGGLVQAGGSLRLSCAASGSTFIRYAMGWYRQAPGKERELVAAITWRGGSTYYADSVKGRFTISRDNAKNTVYLQMNSLKPEDTAVYYCAARDRDTRNYYWGQGTQVTVSS”: the “polyreactivity (PSR sort gate)” value is “high polyreactivity”.

With “QVQLVESGGGLVQAGGSLRLSCAASGITFDAHAMGWYRQAPGKERELVARISSGGSTNYADSVKGRFTISRDNAKNTVYLQMNSLKPEDTAVYYCANSYLYGFDYWGQGTQVTVSS”, the “polyreactivity (PSR sort gate)” value is recorded as “low polyreactivity”.

Regarding “QVQLQESGGGLVQAGGTLRLSCAASGSIYDDTYMGWYRQAPGKERELVATIDSGSTTNYADSVKGRITISRDNAKKTVYLQMNSLKPEDTAVYYCAAADSHIDYFDYWGQGTQVTVSS”, the “polyreactivity (PSR sort gate)” value is “low polyreactivity”.

With “QVQLVESGGGLVQAGGSLRLSCAASGSTFGVYAMGRYRQAPGKERELVAAISYGDSTNYADSVKGRFTISRDNAKNTVYLQMNSLIPEDTAVYYCNALELYAAYPEYYLYYWYDYWGQGTQVNVSS”, the “polyreactivity (PSR sort gate)” value is “high polyreactivity”.

On to “QVQLVVSGGGLVQAGGSLRLSCAASGSIFGENAMGWYRQAPGKERELVAAITWSGASTYYADSVKGRFTISRDNAKNTVFLKMNSLKPEDTAVYYCNDDRFVRFSTFDYWGQGTQVTVSS”, for which the “polyreactivity (PSR sort gate)” value is “high polyreactivity”.

“QVQLVESGGGLVQAGGSLRLSCAASGRTFGRYAMGWYRQAPGKERELVADITGGGSTNYADSVKGRFTISRDNAKNTVYFQMNSLKPEDTAVYYCNAGILSRWVRKYYYWGQGTQVTVSS”: the “polyreactivity (PSR sort gate)” value is recorded as “low polyreactivity”.

Turning to “QVQRVESGGGLVQAGGSLRLSCAASGSTFRRYTMGWYRQAPGKERELVAAITYRGSSTYYADSVKGRFTISRDNAKNTVYLQMNSLKPEDTAVYYCAADARYTGYYYWGQGTQVTVSS”, the “polyreactivity (PSR sort gate)” value is on record as “high polyreactivity”.

With “QVQLVESGGGLVPAGGSLRLSCAASGSMNTLYAMGWYRHAPGKERDLVADITRSGGSTYYADSVKGRFTISRDNAMNTVYLQMNSLKPEDTAVYYCAADKAPYSTEGDYWGQGTQVTVSS”, the “polyreactivity (PSR sort gate)” value is given as “high polyreactivity”.

As to “QVQLVESGAGLVQEGGSLRLICAASGRTFRGSDMGWYSPAPGKERELVAAITSGGSTNYADSVKGRFTISRDNAKNTVYLHMNSLKPEDPAVYYCNRDTSKYGLWRYIYDYWGQGTQVNVSS”, the “polyreactivity (PSR sort gate)” value is on record as “low polyreactivity”.

Turning to “QVQLVESGGGLVQAGGSLRLSCAASGIIFRFYAMGWYRQAPGKERELVAVITSRSDSTYYADSVKGRFTISRDNAKNTVYLQMNSLKPEDTAVYYCNARYPWYYRYSTYDYWGQGTQVTVSS”, the “polyreactivity (PSR sort gate)” value was “high polyreactivity”.

Regarding “QVQLVESGGGLVQAGGSLRLSCAASGSTFGPYAMGWYRQAPGKERELVAAITSSGGTTYYADSVKGRFTISRDNAKNTVYLQMNSLKPEDTAVYYCNTRRHGWKGVAYDYWGQGTQVTVSS”, the “polyreactivity (PSR sort gate)” value was “low polyreactivity”.

Consider “QVQLVESGGGLVQAGGSLRLSCAASGRIFYYNAMGWYRQAPGKERELVAAITRGGSTYYADSVKGRFTISRDNAKNTVYLQMNCLKPVDTAVYYCAADRPGYSRYTTSVKGQRYYYWGQGTQVTVSS”, for which the “polyreactivity (PSR sort gate)” value is “high polyreactivity”.

Take “QVQLVESGGGLVQAGGSLRLSCAASGLTFVANAMGWYRQAPGKERELVAAIDYGGGHTYYADSVKGRFTISRDYAKNTVYLQMNSLKPEDTAVYYCAVGLPHGGRRLYGSWYRFDYWGQGTQVTVSS”: the “polyreactivity (PSR sort gate)” value is on record as “low polyreactivity”.

In the case of “QVQLVESGGGLVQAGGSLRLSCAASGRLCGIYTMGWYRQAPGKERELVAAISKRGSSTSYADSVKGRFTISRDNAKNTVYLQMNSQKPEDTAVYYCAARYGYSYRYSGFDYWGQGTQVTVSS”, the “polyreactivity (PSR sort gate)” value is on record as “high polyreactivity”.

“QVQLVESGGGLVQAGGSLRLSCAASGRTFRLYALGWYRQAPGKERELVAAIRSSGGRTYYADSVKGRFTISRDNAKKTVYLQINSLKPEDTAVYYCATTSGLIGYYWKYNYWGQGTQVTVSS”: the “polyreactivity (PSR sort gate)” value was “high polyreactivity”.

Consider “QVQLVESGGGLVQAGRSLRLSCAASGSILGFYAMGWYRHAPGKERELVAAIRWRAGSTYYADSVKGRFTISRDNAKNTVNLQMNSLKPEDTAVYYCAAPTKYRSRRYYWGQGTQVTVSS”, for which the “polyreactivity (PSR sort gate)” value is listed as “high polyreactivity”.

Regarding “QVQLVESGGGLVQAGGSLRLSCAASGRIFGYNAMGWYRQAPGKERELVAVITYSGGSTYYADSVKGRFTISRDNAKNTVYLQMNSLKPEDTAVYYCNARPIDRYSGSGKQWPDYYYWGQGTQVTVSS”, the “polyreactivity (PSR sort gate)” value is “low polyreactivity”.

For the sequence “QVQLVESGGGLVQAGGSLRLSCAASGSTFDDYAMGWYRQAPGKERELVAAISSSGGRTYYADSVKGRFTISRDNAKNTVYLQMNSLKPEDTAVYYCNADSYRSRGRYEFGRFDYWGQGTQVTVSS”, the “polyreactivity (PSR sort gate)” value is on record as “high polyreactivity”.

For the sequence “QVQLVESGGGLVQAGGRLRLSCAASGGIIWAYAMGRYRQAPGKERELVAAISSSTGTTYYADSVKGRFTISRDNAKNTVYLQMNSLKPEETAVYYCAAYAYIGDYVSYYGGDYWGQGTQVTVSS”, the “polyreactivity (PSR sort gate)” value is reported as “low polyreactivity”.

As to “QVQLVESGGGLVQAGGSLRLSCAASGRTFKGYTMGWYRQAPGKERELVAVITWSGDRTYYADSVKGRFTISRDNAKNTVYLQMNSLKPEDTAVYYCAARGYSLRTRGDYWGQGTQVTVSS”, the “polyreactivity (PSR sort gate)” value was “high polyreactivity”.

As for “QVQLVESGGGLVQAGGSLRLSCAASGRTFSVNAMGWYRQAPGKERELVAAISWDGGSTYYADSVKGRFTISRDTAKNTVYLQMNSLKPEDTAVYYCNKDLYYAYDYWGQGTQVTVSS”, the “polyreactivity (PSR sort gate)” value is listed as “low polyreactivity”.

“QVLLQESGGLVQAGCSLRMSCAASGSISTALSMGWYRQAPGKERELVATISDGASTNYADSVKGRFTISRVNAKNTVYLQMNSLKPEDTEVYYCAAQSQYRPDHRYWGQGTQVTVSS”: the “polyreactivity (PSR sort gate)” value is reported as “high polyreactivity”.

Take “QVQLVESGGGLVQAGGSLRLSCAASGFIFDLYAMGWYRQAPGKERELVAVISYDGGSTYYADSVKGRFTISRDNAKNTVYLQMNSLNPEDTAVYYCNTYAGLVSPSDLYDYWGQGTQVTVSS”: the “polyreactivity (PSR sort gate)” value is reported as “low polyreactivity”.
